Source: patent publication US20190023782A1 (SHANGHAI JUNSHI BIOSCIENCES, published 2019)

Tests used:
[1] = molecular target: T1, rh-PD-1 recombinant protein (human, UniProt Q15116 25-170, limits assumed); experiment: ELISA on PD-1 protein
T1 construct: also called human-derived PD-1; PD-1 protein

[2] = molecular target: T1, rh-PD-1 recombinant protein; experiment: ELISA, PD-1 coated at 1 ug/ml, goat anti-human HRP detection
Protocol: (§1) 1 ug /ml of human-derived PD-1, Macaca fascicularis PD-1, and mouse-derived PD-1 (Sinobiological) in the carbonate buffer solution (0.05 M PH9) were prepared and used to coat the wells of the 96-well flat-bottom plates at 4° C. overnight. The next day, solution was removed from the wells and the wells were washed three times with a washing buffer. PBS solution containing 3% BSA was added to block the wells for 20 minutes. […] The mixture was incubated at room temperature for 1 hour and then washed three times with a washing buffer. A HRP conjugated goat anti human antibody (Jackson Immunoresearch) was first diluted to 1: 10000 with the washing buffer and then added to the wells to incubate at room temperature for 1 hour. After washing three times with the washing buffer, 50 ul TMB substrate solution was added to the wells to develop the color. After 10 minutes at room temperature, the color development reaction was terminated with 25 ul 0.5M sulfuric acid solution and the absorbance was read at 450 nm.

Macaca fascicularis PD-1 = molecular target: T2, Macaca fascicularis PD-1 (Macaca fascicularis); experiment: as above
T2 construct: also called cyno PD-1
T2 chain: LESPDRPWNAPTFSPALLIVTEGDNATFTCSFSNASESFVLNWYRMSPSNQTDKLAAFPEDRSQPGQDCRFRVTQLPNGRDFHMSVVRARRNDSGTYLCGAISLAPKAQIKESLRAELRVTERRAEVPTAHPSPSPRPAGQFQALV
Protocol: as §1

[3] = molecular target: T1, rh-PD-1 recombinant protein; experiment: ELISA, rh-PD-1 coated at 1 ug/ml, antibody at 1 ug/ml

T1 sequence (Q15116 25-170 limits assumed): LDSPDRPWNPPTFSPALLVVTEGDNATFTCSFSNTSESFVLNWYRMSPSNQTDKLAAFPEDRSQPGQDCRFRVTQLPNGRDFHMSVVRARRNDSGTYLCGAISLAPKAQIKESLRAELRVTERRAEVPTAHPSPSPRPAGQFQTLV

B1: H1L1 (antibody, V domains shown)
VH: QGQLQQSGAELVRPGASVTLTCKASGYTFTDYEMHWVKQTPIHGLEWIGVIESETGGTAYNQKFKGKAKLTADKSSSTAYMELRSLTSEDSAVYYCTREGITTVATTYYWYFDVWGTGTTVTVSS
VL: DVLMTQTPLSLPVSLGDQASISCRSSQSIVHSNGNTYLEWYLQKPGQSPELLIYKVYNRFSGVPDRFSGSGSGTDFTLKISRVEAEDLGVYYCFQGSHVPFTFGSGTKLEIK
notes: also called original antibody 1 (heavy chain 1, light chain 1)
For B1, the EC50 [1] was 0.338 nM.

B2: H10L10 (antibody, V domains shown)
VH: QVQLQQSGAELVRPGASVTLSCKASGYTFTDYEMHWVKQTPVHGLEWIGAIDPETGGAAYNQKFKGKAILTADKSSSTAYMELRSLTSEDSAVYYCTREGITTSVVTYYWYFDVWGTGTTVTVSS
VL: DVLMTQTPLSLPVSLGDQASISCRSSQSIVHSNGNTYLEWYLQKPGQSPKLLIYKVSNRFSGVPDRFSGSGSGTDFTLRISRVEPEDLGVYYCFQGSHVPLTFGSGTKLEIK
notes: also called original antibody 10 (heavy chain 10, light chain 10)
B2 gave an EC50 [1] of 0.426 nM.

B3: H1L10 (antibody, V domains shown)
VH: QGQLQQSGAELVRPGASVTLTCKASGYTFTDYEMHWVKQTPIHGLEWIGVIESETGGTAYNQKFKGKAKLTADKSSSTAYMELRSLTSEDSAVYYCTREGITTVATTYYWYFDVWGTGTTVTVSS
VL: DVLMTQTPLSLPVSLGDQASISCRSSQSIVHSNGNTYLEWYLQKPGQSPKLLIYKVSNRFSGVPDRFSGSGSGTDFTLRISRVEPEDLGVYYCFQGSHVPLTFGSGTKLEIK
notes: also called recombinant antibody H1L10 (heavy chain 1, light chain 10)
Work on B3 yielded an EC50 [1] of 0.27 nM.

B4: H10L1 (antibody, V domains shown)
VH: QVQLQQSGAELVRPGASVTLSCKASGYTFTDYEMHWVKQTPVHGLEWIGAIDPETGGAAYNQKFKGKAILTADKSSSTAYMELRSLTSEDSAVYYCTREGITTSVVTYYWYFDVWGTGTTVTVSS
VL: DVLMTQTPLSLPVSLGDQASISCRSSQSIVHSNGNTYLEWYLQKPGQSPELLIYKVYNRFSGVPDRFSGSGSGTDFTLKISRVEAEDLGVYYCFQGSHVPFTFGSGTKLEIK
notes: also called recombinant antibody H10L1 (heavy chain 10, light chain 1)
With B4 the EC50 [1] was 0.528 nM.

B5: humanized antibody Clone 41 (antibody, V domains shown)
VH: QGQLVQSGAEVKKPGASVKVSCKASGYTFTDYEMHWVRQAPGQGLEWMGVIESETGGTAYNQKFQGRVTLTADKSSSTAYMELSSLRSEDTAVYYCTREGITTVATTYYWYFDVWGQGTLVTVSS
VL: DVVMTQSPLSLPVTLGQPASISCRSSQSIVHSNGNTYLEWYLQKPGQSPQLLIYKVSNRFSGVPDRFSGSGSGTDFTLKISRVEAEDVGVYYCFQGSHVPLTFGQGTKLEIK
notes: Humanized antibody; also called hu41
B5: binds [2]; binds (Macaca fascicularis PD-1).

B6: Clone 11 (antibody, V domains shown)
VH: QVTLKESGPGILQPSQTLSLTCSFSGFSLSTFGMGVGWIRQPSGKGLEWLAHIWWDDDKYYNPALKSRLTISKNTSKNQVFLKIANVDTEDTATYYCARIEERFRWYFDVWGTGTTVTVSS
VL: RAGWTQESALTTSPGETVTLTCRSSTGAITTSNYANWVQEKPDHLFTGLIGGTNNRAPGVPARFSGSLIGDKAALTITGAQTEDEAIYFCALWYSNHWVFGGGTKLTVL
notes: Mouse hybridoma antibody; also called antibody candidate Clone 11
B6: binds [3].
